Measured values as given in patent US20230065562A1, “DUAL CONTROLS FOR THERAPEUTIC CELL ACTIVATION OR ELIMINATION” (Bellicum Pharmaceuticals, Inc., priority 2015, published 2023).
“Also recorded” adds a separate entry of the source.

tested on: HEK293T/16 cells; assay: Secreted alkaline phosphatase (SEAP)-based surrogate killing assay of iCasp9 mutants; type: cell-based, human; conditions: SEAP assay without AP1903
Method: Early passage HEK293T/16 cells (ATCC, Manassas, Va.) were maintained in IMDM, GlutaMAX™ (Life Technologies, Carlsbad, Calif.) supplemented with 10% FBS, 100 U/mL penicillin, and 100 […] until transfection in a humidified, 37° C., 5% CO2/95% air atmosphere. Cells in logarithmic-phase growth were transiently transfected with 800 ng to 2 μg of expression plasmid encoding iCasp9 mutants and 500 ng of an expression plasmid encoding SRα promoter driven SEAP per million cells in 15-mL conical tubes. […] GeneJammer® Transfection Reagent at a ratio of 3 μl per ug of plasmid DNA was used to transiently transfect HEK293T/16 cells in the absence of antibiotics. 100 μl or 2 mL of the transfection mixture was added to each well in 96-well or 6-well plate, respectively.
Briefly, after 65° C. heat denaturation for 45 minutes to reduce background caused by endogenous (and serum-derived) alkaline phosphatases that are sensitive to heat, 5 μl of supernatants was added to 95 μl of PBS and added to 100 μl of substrate buffer, containing 1 μl of 100 mM 4-methylumbelliferyl phosphate (4-MUP; Sigma, St. Louis, Mo.) re-suspended in 2 M diethanolamine. Hydrolysis of 4-MUP by SEAP produces a fluorescent […] with excitation/emission (355/460 nm), which can be easily measured. Assays were performed in black opaque 96-well plates to minimize fluorescence leakage between wells. […] of the mixture was seeded onto each well of a 96-well plate. […] For the assay, 4-methylumbelliferyl phosphate substrate was hydrolyzed by SEAP to 4-methylumbelliferon, a metabolite that can be excited with 364 nm and detected with an emission filter of 448 nm. Since SEAP is used as a marker for cell viability, reduced SEAP reading corresponds with increased iCaspase-9 activities.

| Molecule | Basal Activity (relative to wild type/unmodified Caspase-9) |
| --- | --- |
| D330A-S183A: modified iCasp9 double mutant (protein, UniProt P55211 1-416, looked up, variant D330A S183A, FKBP12-F36V fusion (iCasp9), CARD deleted, modified iCasp9 double mutant) MDEADRRLLRRCRLRLVEELQVDQLWDALLSRELFRPHMIEDIQRAGSGSRRDQARQLIIDLETRGSQALPLFISCLEDTGQDMLASFLRTNRQAAKLSKPTLENLTPVVLRPEIRKPEVLRPETPRPVDIGSGGFGDVGALESLRGNADLAYILSMEPCGHCLIINNVNFCRESGLRTRTGANIDCEKLRRRFSSLHFMVEVKGDLTAKKMVLALLELAQQDHGALDCCVVVILSHGCQASHLQFPGAVYGTDGCPVSVEKIVNIFNGTSCPSLGGKPKLFFIQACGGEQKDHGFEVASTSPEDESPGSNPEPDATPFQEGLRTFDQLAAISSLPTPSDIFVSYSTFPGFVSWRDPKSGSWYVETLDDIFEQWAHSEDLQSLLLRVANAVSVKGIYKQMPGCFNFLRKKLFFKTS | Decreased |
| N405Q-S144D: modified iCasp9 double mutant (protein, UniProt P55211 1-416, looked up, variant N405Q S144D, FKBP12-F36V fusion (iCasp9), CARD deleted, modified iCasp9 double mutant) MDEADRRLLRRCRLRLVEELQVDQLWDALLSRELFRPHMIEDIQRAGSGSRRDQARQLIIDLETRGSQALPLFISCLEDTGQDMLASFLRTNRQAAKLSKPTLENLTPVVLRPEIRKPEVLRPETPRPVDIGSGGFGDVGALEDLRGNADLAYILSMEPCGHCLIINNVNFCRESGLRTRTGSNIDCEKLRRRFSSLHFMVEVKGDLTAKKMVLALLELAQQDHGALDCCVVVILSHGCQASHLQFPGAVYGTDGCPVSVEKIVNIFNGTSCPSLGGKPKLFFIQACGGEQKDHGFEVASTSPEDESPGSNPEPDATPFQEGLRTFDQLDAISSLPTPSDIFVSYSTFPGFVSWRDPKSGSWYVETLDDIFEQWAHSEDLQSLLLRVANAVSVKGIYKQMPGCFQFLRKKLFFKTS | Decreased |
| N405Qco: codon-optimized version of N405Q modified Caspase-9 (protein, UniProt P55211 1-416, looked up, variant N405Q, FKBP12-F36V fusion (iCasp9), codon-optimized) MDEADRRLLRRCRLRLVEELQVDQLWDALLSRELFRPHMIEDIQRAGSGSRRDQARQLIIDLETRGSQALPLFISCLEDTGQDMLASFLRTNRQAAKLSKPTLENLTPVVLRPEIRKPEVLRPETPRPVDIGSGGFGDVGALESLRGNADLAYILSMEPCGHCLIINNVNFCRESGLRTRTGSNIDCEKLRRRFSSLHFMVEVKGDLTAKKMVLALLELAQQDHGALDCCVVVILSHGCQASHLQFPGAVYGTDGCPVSVEKIVNIFNGTSCPSLGGKPKLFFIQACGGEQKDHGFEVASTSPEDESPGSNPEPDATPFQEGLRTFDQLDAISSLPTPSDIFVSYSTFPGFVSWRDPKSGSWYVETLDDIFEQWAHSEDLQSLLLRVANAVSVKGIYKQMPGCFQFLRKKLFFKTS | Decreased |
| D330S: modified iCasp9, D330S (protein) VDGFGDVGALESLRGNADLAYILSMEPCGHCLIINNVNFCRESGLRTRTGSNIDCEKLRRRFSSLHFMVEVKGDLTAKKMVLALLELARQDHGALDCCVVVILSHGCQASHLQFPGAVYGTDGCPVSVEKIVNIFNGTSCPSLGGKPKLFFIQACGGEQKDHGFEVASTSPEDESPGSNPEPDATPFQEGLRTFDQLSAISSLPTPSDIFVSYSTFPGFVSWRDPKSGSWYVETLDDIFEQWAHSEDLQSLLLRVANAVSVKGIYKQMPGCFNFLRKKLFFKTSASRA | less basal activity than wild type Caspase-9; also recorded: Decreased |
| D330A-S196A: modified iCasp9 double mutant (protein) VDGFGDVGALESLRGNADLAYILSMEPCGHCLIINNVNFCRESGLRTRTGSNIDCEKLRRRFSALHFMVEVKGDLTAKKMVLALLELARQDHGALDCCVVVILSHGCQASHLQFPGAVYGTDGCPVSVEKIVNIFNGTSCPSLGGKPKLFFIQACGGEQKDHGFEVASTSPEDESPGSNPEPDATPFQEGLRTFDQLAAISSLPTPSDIFVSYSTFPGFVSWRDPKSGSWYVETLDDIFEQWAHSEDLQSLLLRVANAVSVKGIYKQMPGCFNFLRKKLFFKTSASRA | Decreased |
| N405Q-S144A: modified iCasp9 double mutant (protein) VDGFGDVGALEALRGNADLAYILSMEPCGHCLIINNVNFCRESGLRTRTGSNIDCEKLRRRFSSLHFMVEVKGDLTAKKMVLALLELARQDHGALDCCVVVILSHGCQASHLQFPGAVYGTDGCPVSVEKIVNIFNGTSCPSLGGKPKLFFIQACGGEQKDHGFEVASTSPEDESPGSNPEPDATPFQEGLRTFDQLDAISSLPTPSDIFVSYSTFPGFVSWRDPKSGSWYVETLDDIFEQWAHSEDLQSLLLRVANAVSVKGIYKQMPGCFQFLRKKLFFKTSASRA | Decreased |
| D330A-S144D: modified iCasp9 double mutant (protein) VDGFGDVGALEDLRGNADLAYILSMEPCGHCLIINNVNFCRESGLRTRTGSNIDCEKLRRRFSSLHFMVEVKGDLTAKKMVLALLELARQDHGALDCCVVVILSHGCQASHLQFPGAVYGTDGCPVSVEKIVNIFNGTSCPSLGGKPKLFFIQACGGEQKDHGFEVASTSPEDESPGSNPEPDATPFQEGLRTFDQLAAISSLPTPSDIFVSYSTFPGFVSWRDPKSGSWYVETLDDIFEQWAHSEDLQSLLLRVANAVSVKGIYKQMPGCFNFLRKKLFFKTSASRA | Decreased |
| L329E: modified iCasp9, L329E (protein) VDGFGDVGALESLRGNADLAYILSMEPCGHCLIINNVNFCRESGLRTRTGSNIDCEKLRRRFSSLHFMVEVKGDLTAKKMVLALLELARQDHGALDCCVVVILSHGCQASHLQFPGAVYGTDGCPVSVEKIVNIFNGTSCPSLGGKPKLFFIQACGGEQKDHGFEVASTSPEDESPGSNPEPDATPFQEGLRTFDQEDAISSLPTPSDIFVSYSTFPGFVSWRDPKSGSWYVETLDDIFEQWAHSEDLQSLLLRVANAVSVKGIYKQMPGCFNFLRKKLFFKTSASRA | Decreased |
| D330A-S144A: modified iCasp9 double mutant (protein) VDGFGDVGALEALRGNADLAYILSMEPCGHCLIINNVNFCRESGLRTRTGSNIDCEKLRRRFSSLHFMVEVKGDLTAKKMVLALLELARQDHGALDCCVVVILSHGCQASHLQFPGAVYGTDGCPVSVEKIVNIFNGTSCPSLGGKPKLFFIQACGGEQKDHGFEVASTSPEDESPGSNPEPDATPFQEGLRTFDQLAAISSLPTPSDIFVSYSTFPGFVSWRDPKSGSWYVETLDDIFEQWAHSEDLQSLLLRVANAVSVKGIYKQMPGCFNFLRKKLFFKTSASRA | Decreased |
| S183A: modified iCasp9, S183A (protein) VDGFGDVGALESLRGNADLAYILSMEPCGHCLIINNVNFCRESGLRTRTGANIDCEKLRRRFSSLHFMVEVKGDLTAKKMVLALLELARQDHGALDCCVVVILSHGCQASHLQFPGAVYGTDGCPVSVEKIVNIFNGTSCPSLGGKPKLFFIQACGGEQKDHGFEVASTSPEDESPGSNPEPDATPFQEGLRTFDQLDAISSLPTPSDIFVSYSTFPGFVSWRDPKSGSWYVETLDDIFEQWAHSEDLQSLLLRVANAVSVKGIYKQMPGCFNFLRKKLFFKTSASRA | Decreased |
| S196A: modified iCasp9, S196A (protein) VDGFGDVGALESLRGNADLAYILSMEPCGHCLIINNVNFCRESGLRTRTGSNIDCEKLRRRFSALHFMVEVKGDLTAKKMVLALLELARQDHGALDCCVVVILSHGCQASHLQFPGAVYGTDGCPVSVEKIVNIFNGTSCPSLGGKPKLFFIQACGGEQKDHGFEVASTSPEDESPGSNPEPDATPFQEGLRTFDQLDAISSLPTPSDIFVSYSTFPGFVSWRDPKSGSWYVETLDDIFEQWAHSEDLQSLLLRVANAVSVKGIYKQMPGCFNFLRKKLFFKTSASRA | Decreased |

same assay, conditions: marked '*, predicated'

| Molecule | Basal Activity (relative to wild type), predicted mutants (*) |
| --- | --- |
| N405Q-S144Aco: codon-optimized double mutant, class predicted (protein, UniProt P55211 1-416, looked up, variant N405Q S144A, FKBP12-F36V fusion (iCasp9), codon-optimized, codon-optimized double mutant, class predicted) MDEADRRLLRRCRLRLVEELQVDQLWDALLSRELFRPHMIEDIQRAGSGSRRDQARQLIIDLETRGSQALPLFISCLEDTGQDMLASFLRTNRQAAKLSKPTLENLTPVVLRPEIRKPEVLRPETPRPVDIGSGGFGDVGALEALRGNADLAYILSMEPCGHCLIINNVNFCRESGLRTRTGSNIDCEKLRRRFSSLHFMVEVKGDLTAKKMVLALLELAQQDHGALDCCVVVILSHGCQASHLQFPGAVYGTDGCPVSVEKIVNIFNGTSCPSLGGKPKLFFIQACGGEQKDHGFEVASTSPEDESPGSNPEPDATPFQEGLRTFDQLDAISSLPTPSDIFVSYSTFPGFVSWRDPKSGSWYVETLDDIFEQWAHSEDLQSLLLRVANAVSVKGIYKQMPGCFQFLRKKLFFKTS | Decreased |
